B1: TrxA-tagged wild-type human TRAF7 CC (fragment 270–379 aa) [human] / itself (parent)
chain: GNQDTYETHLETCRFEGLKEFLQQTDDRFHEMHVALAQKDQEIAFLRSMLGKLSEKIDQLEKSLELKFDVLDENQSKLSEDLMEFRRDASMLNDELSHINARLNMGILGS

Variants of: B1
Experiment: SEC-MALS (self-association / trimerisation)
Details: with itself; TrxA-tagged at the N-terminus; theoretical molecular weight of the WT trimer is 84.9 kDa

screen value	Variant
49.5 kDa	GNQDTYETHLETCRFEGLKEFLQQTDDRFHEMHVALAQKDQEIAFLRSMLGKRSEKIDQLEKSLELKFDVLDENQSKLSEDLMEFRRDASMLNDELSHINARLNMGILGS [chain 1 L53R]
63.5 kDa	GNQDTYETHLETCRFEGLKEFLQQTDDRFHEMHVALAQKDQEIAFLRSMLGKLSEKIDQLEKSLELKFDVLDENQSKRSEDLMEFRRDASMLNDELSHINARLNMGILGS [chain 1 L78R]

— paper PMC11216086, “The structure of TRAF7 coiled-coil trimer provides insight into its function in zebrafish embryonic development” (Journal of Molecular Cell Biology, 2024)
